Like-named read-outs stand apart in the source and are kept apart here.

Assay [1] addresses T1, HLA-Cw*0102 on TAP deficient 721.174 cells (human (endogenous in 721.174)). The assay is described as follows: FACS. A general note: A flow cytometer gives signals particle by particle.
Assay [2] concerns the target T1, HLA-Cw*0102 on TAP deficient 721.174 …. The assay is described as follows: FACS. The source holds these as a separate data set.

As to VAPWNSDAL [VAPWNSDAL peptide], the affinity in assay [1], expressed as Kd, was 140 nM.

In the case of VAPWNSFAL [VAPWNSFAL peptide], the Kd (in general, the equilibrium constant for the complex coming apart) in assay [1] was 140 nM.

In assay [2], VAPWNSLSL registered a Kd of 180 nM.

As for VAPWNSRAL [VAPWNSRAL peptide], binding in assay [1] was put at a Kd of 190 nM.

These data come from PMC4324016 (2014).
